# According to patent publication US20190160169A1 (JULIUS MAXIMILIANS UNIVERSIT T W RZBURG, published 2019):
# T1: recombinant mature human GDF-15 protein (derived from Baculovirus-transfected HighFive insect cells) (human, UniProt Q99988 197-308)
# T1 construct: also called recombinant human GDF-15; GDF-15 derived from insect cell expression
# T1 sequence: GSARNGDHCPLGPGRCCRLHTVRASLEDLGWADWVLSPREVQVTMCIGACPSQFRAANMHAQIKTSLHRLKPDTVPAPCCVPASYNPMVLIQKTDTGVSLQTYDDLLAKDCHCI
# B1: monoclonal anti-human GDF-15 mAb-B1-23 (antibody, V domains shown)
# VH: QVKLQQSGPGILQSSQTLSLTCSFSGFSLSTSGMGVSWIRQPSGKGLEWLAHIYWDDDKRYNPTLKSRLTISKDPSRNQVFLKITSVDTADTATYYCARSSYGAMDYWGQGTSVTVSS
# VL: DIVLTQSPKFMSTSVGDRVSVTCKASQNVGTNVAWFLQKPGQSPKALIYSASYRYSGVPDRFTGSGSGTDFTLTISNVQSEDLAEYFCQQYNNFPYTFGGGTKLEIK
# notes: also called antibody B1-23; monoclonal mouse antibody GDF-15
# Key:
# [1] = target: recombinant mature human GDF-15 protein derived from expression in E. coli (human) (UniProt Q99988); assay: SPR (Biorad ProteOn XPR36), GDF-15 immobilised on GLC chip, antibody as analyte
# [2] = target: T1, recombinant mature human GDF-15 protein …; assay: SPR (Biorad ProteOn XPR36), KD=koff/kon
# From the text: (§1) For preparing the biosensors recombinant mature human GDF-15 protein was immobilized on flow cells 1 and 2. On one flow cell recombinant GDF-15 derived from Baculvirus-transfected insect cells (HighFive insect cells) and on the other recombinant protein derived from expression in E. coli was used. The GLC sensor chip was activated using Sulfo-NHS (N-Hydroxysulfosuccinimide) and EDC (1-Ethyl-3-[3-dimethylaminopropyl]carbodiimide hydrochloride) (Biorad ProteOn Amine Coupling Kit) according to the manufacturer's recommendation, the sensor surface was subsequently loaded with the proteins up to a density of about 600 RU (1 Ru=1 pg mm⁻²). The non-reacted coupling groups were then quenched by perfusion with 1M ethanolamine pH 8.5 and the biosensor was equilibrated by perfusing the chip with running buffer ([…], 150 mM NaCl, 3.4 mM EDTA, 0.005% Tween-20, pH 7.4, referred to as HBS150). […] The resulting sensogram was analyzed using the software ProteOn Manager version 3.0. […] For the association rate constant a value of 5.4±0.06×10⁵ M⁻¹ s⁻¹ (kₒₙ) and for the dissociation rate constant a value of 4.3±0.03×10⁻⁴ s⁻¹ (koff) could be determined (values are for the interaction of anti-human GDF-15 mAb-B1-23 with GDF-15 derived from insect cell expression).
# [3] = target: T1, recombinant mature human GDF-15 protein …; assay: SPR (Biorad ProteOn XPR36), GDF-15 immobilised on GLC chip, antibody as analyte, 25 °C, 1:1 Langmuir
# From the text: as §1
binder,measurement,setting,value
B1,deviation of rate constants against GDF-15 derived from insect cells,[1],45%
same,difference of affinity values against GDF-15 derived from insect cells,[1],< 2 fold
same,Kd,[2],~0.79 nM
same,koff,[3],0.00043 s⁻¹
same,kon,[3],540000 M⁻¹ s⁻¹
